Assay [1] relates to primary melanocytes. Kind of assay: Melanocyte cell viability after IFN-γ, chemokines, cell death inhibitors or 2A6Q, Day 2 and Day 7. The conditions noted are these: day 7 of treatment. The class given is cell-based, human. The procedure: To determine cell viability of melanocyte after treatment with IFN-γ, CXCL9, CXCL10, CXCL11, at Day 2, and Day 7, the cells were collected and seeded into 96-well plates. After adhesion, cells were treated with IFN-γ (0, 10, 100 ng/ml) with different compounds: 2A6Q, CXCL9, CXCL10, CXCL11, ROS scavenger (NAC), necroptosis inhibitor (NEC-1), pyroptosis inhibitor (VX-765), apoptosis inhibitor (QVD-OPH), Ferroptosis inhibitor (Liproxstaitin-1, Ferrostatin-1, DFO). Cell viability was measured using a CellTiter-Glo luminescent cell viability assay kit (Promega) according to the manufacturer's protocol. The […] of the final reaction product was measured using a luminometer (SpectraMax® iD3 Multi-Mode Microplate Reader (Molecular Devices). After calculation, the viability of control cells was 100%, and all others were normalized to control and shown as relative cell viability (%). Treatment dosage N-acetylcysteine (NAC; 0.05 mM, 1 mM), Necrostatin-1 (NEC-1; 20 μM, 2 μM), Belnacasan (VX-765; 50 μg/mL, 5 μg/mL), Quinoline-Val Asp-Difluorophenoxymethylketone (QVD-OPH; 10 μM, 2 μM), Liproxstaitin-1 (10 μM, 5 μM, 1 μM, 0.05 μM), Ferrostatin-1 (5 μM, 1 μM), Deferoxamine (DFO; 10 μM, […], 1 μM, 0.05 μM), 2A6Q (10 μg/mL), CXCL9 (10 ng/mL, 10 pg/mL), CXCL10 (10 ng/ml, 10 pg/mL), CXCL11(10 ng/mL, 10 pg/mL).

The subject of assay [2] is human primary melanocytes (HEMn-DP). Kind of assay: IFN-γ inhibition of human primary melanocyte cell viability (CellTiter-Glo). The note with it: 72 hrs at 37° C. The class given is cell-based. The procedure:
Materials and methods: To examine the dose-dependency of IFN-γ inhibition of human primary melanocytes (HEMn-DP) cell viability, HEMn-DP cells were seeded into a 96-well plate at a concentration of 10,000 cells/well in 100 μL assay medium (M254 supplemented with 1× HMGS, 10 ng/mL PMA plus Penicillin-Streptomycin) at 37° C. for 5 hours. After seeding, 100 μL of IFN-γ serial dilutions were added, followed by incubation at 37° C. for 72 hrs. Then, cell proliferation was measured using CellTiter-Glo kit (Promega) according to the manufacturer's instructions. Luminescence was measured with an iD3 multimode reader (Molecular Devices), and data analyzed using nonlinear regression curve fit using GraphPad Prism7.
(In general: In ATP-based viability assays light output follows the ATP content of the culture.)

For a further assay, the system named is MITF. The assay can be described thus: Melanin regulators in melanocytes (RNA sequencing, MITF immunoblot). The class given is cell-based, human. An excerpt: (§1) Total RNA was extracted from melanocytes with an RNA purification kit (Zymo Research, r2050). After RNA samples were extracted from primary melanocytes and melanocytes cell line (Gibco), the samples were sent to Biotools Co., Ltd Taiwan for RNA sequence. The RNA quality was examined by Agilent Technologies 2100 Bio-analyzer with an RNA integrity value greater than 8. After rRNA depletion (Epicenter), RNA fragmentation, and library preparation (Illumina), the constructed libraries were then performed 150 bp paired-end sequencing by an Illumina NovaSeq6000 sequencer. The results from each sample were aligned to the GRCh38 genome by the HISAT2 software and analyzed by Biotools Co., Ltd Taiwan.
(§2) Cells were washed in PBS and lysed in RIPA lysis buffer with proteases inhibitor and Phenylmethanesulfonyl fluoride (PMSF; Sigma-Aldrich, P7626). The total cell lysates were sonicated and centrifuged at 4° C., 13000 rpm for 30 min. Protein concentration was quantified using the Bradford assay. The total cell lysates were separated by SDS-PAGE and transferred to a PVDF membrane. The membrane was blocked with 5% BSA or 5% milk in TBST for 1 hour at room temperature and incubated with primary antibodies overnight at 4° C. and HRP-conjugated secondary antibodies for hour at room temperature. The protein was visualized by Thermo ibright1500. Primary antibodies were follows: anti-human SLC7A11 (CST, 12691), anti-human SLC3A2 (CST, 13180), anti-IRF1 (CST, 8478), anti-MITF (CST, 12590), and anti-GAPDH (Abcam, ab8245).
(In general: Immunoblotting shows a protein as a band on a membrane.)

The test system of assay [3] is human primary melanocytes (HEMn-DP). The assay can be described thus: IFN-γ inhibition of melanocyte melanogenesis (melanin content, absorbance 470 nm). The class given is cell-based. The procedure: Materials and methods: To examine the dose-dependency of IFN-γ inhibition of HEMn-DP cell melanogenesis, HEMn-DP cells were seeded into a 24-well plate at a concentration of 200,000 cells/well in 1 mL assay medium (M254 supplemented with 1× HMGS, 10 ng/mL PMA plus Penicillin-Streptomycin) with serial dilutions of IFN-γ, followed by incubation at 37° C. for 7 days. The cell assay medium was replaced by fresh medium with serially titrated concentrations of IFN-γ on day 3 and day 5. On day 7, cells were first washed with PBS twice, lysed in 250 μL of 1N NaOH/10% DMSO solution, then incubated at 80° C. for 1 hr. After lysis, each lysate was transfer to 96 well plate, and absorbance of melanin was then measured at […]. The relative melanin quantity was normalized with cell viability of each sample which was measured by CellTiter-Glo kit, and data were analyzed using nonlinear regression curve fit using GraphPad Prism7. To determine the potency of EI-001, HEMn-DP cells were seeded as previously described, and IFN-γ pre-incubated with indicated amounts of EI-001 for 25 min in 1 mL of assay medium. After incubation, the mixture was added to each well (final IFN-γ concentration is 20 ng/ml). Melanin content of melanocytes was determined as previously described.

Assay [4] deals with melanocytes. Kind of assay: Melanocyte apoptosis, Annexin V / 7AAD flow cytometry. The class given is cell-based, human. The conditions noted are these: IFN-γ 10 or 100 ng/ml, 48 hrs. The procedure: Materials and methods: Melanocyte cell apoptosis was detected with Annexin V (BD, 550474) and 7AAD (1 mg/mL, Sigma A9400-1 MG). The cells were detached and resuspended with […] binding buffer (BD, 556454) containing Annexin V and 7AAD for 15 min at room temperature in the dark. Before analysis, cells were added to a […] binding buffer and immediately analyzed a on a flow cytometer (Verse BD).
A general note: Flow cytometry measures light scatter and fluorescence of single cells or particles in a stream.

For assay [5], the system named is primary melanocytes. The assay can be described thus: Cell morphology assay in melanocytes. The class given is cell-based, human.
Assay [6] has as its system melanocytes. Kind of assay: Lipid peroxidation in melanocytes (BODIPY 581/591 C11). The class given is cell-based, human. The note with it: dose-dependent, Day 6. The procedure: For lipid peroxidation examination, melanocyte cells were seeded in a 6-well plate and treated with IFN-γ the next day. Melanocytes were washed with PBS and incubated with Hanks balanced salt solution (HBSS, Gibco) containing 5 μM BODIPY 581/591 C11 (Invitrogen, D3861) and incubated for 15 minutes at 37° C. in a tissue culture incubator. The cells were resuspended with fresh HBSS and examined with flow cytometry; the data were analyzed with FlowJo.

For assay [7], the system named is melanocytes. Kind of assay: Intracellular ROS in melanocytes (CM-H2DCFDA). The class given is cell-based, human. The conditions noted are these: 10 and 100 ng/mL IFN-γ, day 7. The procedure:
Materials and methods: For intracellular ROS measurement, melanocytes were washed with PBS and incubated with 20 μM CM-H2DCFDA (Invitrogen) for 30 min at 37° C. in the dark. The cells were resuspended with PBS and examined with flow cytometry at an excitation wavelength of 488 nm and an emission wavelength of 530 nm; the data were analyzed with FlowJo.

A further assay has as its system SLC7A11. Kind of assay: Ferroptosis regulators in melanocytes (RNA sequencing, SLC7A11 immunoblot). The format is cell-based, human.
Description: as §1, §2

Entries after “also recorded” stand apart in the source; their conditions may differ.

B1: CXCL9: IFN-γ downstream cytokine added to melanocytes (protein, UniProt Q07325 23-125, looked up)
C-X-C motif chemokine 9: TPVVRKGRCSCISTNQGTIHLQSLKDLKQFAPSPSCEKIEIIATLKNGVQTCLNPDSADVKELIKKWEKQVSQKKKQKNGKKHQKKKVLKVRKSQRSRQKKTT
Take B1: the “effect on cell viability of melanocytes (individual cytokine)” value (“effect on cell viability of melanocytes” below) with primary melanocytes [1] is “not CXCL9, CXCL10, or CXCL11 significantly decreases”.

B2: IFN-γ: recombinant human interferon gamma, cytokine added to melanocytes (protein, UniProt P01579 24-161, looked up)
Interferon gamma: QDPYVKEAENLKKYFNAGHSDVADNGTLFLGILKNWKEESDRKIMQSQIVSFYFKLFKNFKDDQSIQKSVETIKEDMNVKFFNSNKKKRDDFEKLTNYSVTDLNVQRKAIHELIQVMAELSPAAKTGKRKRSQMLFRG
Consider B2, for which, in [2], the “IC50 of IFN-γ causing 50% inhibition of melanocyte viability” value is on record as 8.114 ng/mL. Further, the “expression of MITF (immunoblot)” value in the assay on MITF (melanocytes, 24 hrs of treatment) is reported as “dose-dependently downregulates”. Moreover, the “expression of melanin regulators (MITF, MLANA, TYRP1, DCTT, TYR, TRPM1)” value in the assay on MITF (primary melanocyte, IFN-γ 100 ng/ml 24 hrs vs control, transcriptome) is “induced downregulation of melanin regulators”. Also, the “IC50 of IFN-γ causing 50% inhibition of melanocyte melanogenesis” value in assay [3] (human primary melanocytes, 7 days, melanin content) amounted to 0.392 ng/mL. Further, the “melanin content of melanocytes under IFN-γ” value in assay [3] (spectrophotometer) is recorded as “decrease in melanin content in a dose-dependent manner”. Besides, the “early phase apoptosis in melanocytes (Annexin V)” value in the assay with melanocytes [4] is listed as “induced early phase apoptosis; also recorded: significantly upregulate Annexin V but not 7AAD”. Further, in the assay on primary melanocytes [5] (dose-dependent effect), the “lowest concentration at which the morphology effect is present” value is on record as 1 ng/ml. In addition, in the assay on primary melanocytes [5] (primary melanocytes, 7 days of treatment), the “morphology change in melanocyte (loss of dendrite, ballooning of cytoplasm)” value is “contributes to morphology change”. In addition, the “effect on cell viability of melanocytes” value with primary melanocytes [1] was “significantly decreases”. Besides, the “lipid peroxidation level in melanocytes” value in the assay with melanocytes [6] is “increased”. The “intracellular ROS in melanocytes” value in the assay on melanocytes [7] was “significantly elevated”. In addition, the “expression of ferroptosis markers SLC7A11, SLC3A2, Ferritin, GPX4 and TFR1 (RNA sequencing)” value in the assay with SLC7A11 (24 hrs IFN-γ) is given as “downregulation”. Besides, in the assay on SLC7A11 (48 hours incubation with IFN-γ), the “expression of SLC7A11 (immunoblot)” value is listed as “dose-dependently downregulated”.

B3: CXCL11: IFN-γ downstream cytokine added to melanocytes (protein, UniProt O14625 22-94, looked up)
C-X-C motif chemokine 11: FPMFKRGRCLCIGPGVKAVKVADIEKASIMYPSNNCDKIEVIITLKENKGQRCLNPKSKQARLIIKKVERKNF
As for B3, the “effect on cell viability of melanocytes” value in the assay on primary melanocytes [1] is given as “not CXCL9, CXCL10, or CXCL11 significantly decreases”.
